Molecular target: T1, S1-69/70 DelFc (SARS-CoV-2, UniProt P0DTC2 14-685)
T1 construct: domain: S1
Assay: Fc-tagged protein on receptor-expressing HEK293T cells (FIG. 13A)

| Binder | binding result |
| --- | --- |
| Asialoglycoprotein Receptor 1 expressed on cells (receptor, whole, on cells; also called ASGR1) MTKEYQDLQHLDNEESDHHQLRKGPPPPQPLLQRLCSGPRLLLLSLGLSLLLLVVVCVIGSQNSQLQEELRGLRETFSNFTASTEAQVKGLSTQGGNVGRKMKSLESQLEKQQKDLSEDHSSLLLHVKQFVSDLRSLSCQMAALQGNGSERTCCPVNWVEHERSCYWFSRSGKAWADADNYCRLEDAHLVVVTSWEEQKFVQHHIGPVNTWMGLHDQNGPWKWVDGTDYETGFKNWRPEQPDDWYGHGLGGGEDCAHFTDDGRWNDDVCQRPYRWVCETELDKASQEPPLL | binds |
| Dendritic cell-specific intercellular adhesion molecule-3-grabbing nonintegrin expressed on cells (receptor, whole, on cells; also called DC-SIGN; CD209) MSDSKEPRLQQLGLLEEEQLRGLGFRQTRGYKSLAGCLGHGPLVLQLLSFTLLAGLLVQVSKVPSSISQEQSRQDAIYQNLTQLKAAVGELSEKSKLQEIYQELTQLKAAVGELPEKSKLQEIYQELTRLKAAVGELPEKSKLQEIYQELTWLKAAVGELPEKSKMQEIYQELTRLKAAVGELPEKSKQQEIYQELTRLKAAVGELPEKSKQQEIYQELTRLKAAVGELPEKSKQQEIYQELTQLKAAVERLCHPCPWEWTFFQGNCYFMSNSQRNWHDSITACKEVGAQLVVIKSAEEQNFLQLQSSRSNRFTWMGLSDLNQEGTWQWVDGSPLLPSFKQYWNRGEPNNVGEEDCAEFSGNGWNDDKCNLAKFWICKKSAASCSRDEEQFLSPAPATPNPPPA | binds |
| Liver/lymph node-specific intercellular adhesion molecule-3-grabbing integrin expressed on cells (receptor, whole, on cells; also called L-SIGN; CLEC4M) MSDSKEPRVQQLGLLEEDPTTSGIRLFPRDFQFQQIHGHKSSTGCLGHGALVLQLLSFMLLAGVLVAILVQVSKVPSSLSQEQSEQDAIYQNLTQLKAAVGELSEKSKLQEIYQELTQLKAAVGELPEKSKLQEIYQELTRLKAAVGELPEKSKLQEIYQELTRLKAAVGELPEKSKLQEIYQELTRLKAAVGELPEKSKLQEIYQELTELKAAVGELPEKSKLQEIYQELTQLKAAVGELPDQSKQQQIYQELTDLKTAFERLCRHCPKDWTFFQGNCYFMSNSQRNWHDSVTACQEVRAQLVVIKTAEEQNFLQLQTSRSNRFSWMGLSDLNQEGTWQWVDGSPLSPSFQRYWNSGEPNNSGNEDCAEFSGSGWNDNRCDVDNYWICKKPAACFRDE | binds |
| Liver and lymph node sinusoidal endothelial cell C-type lectin expressed on cells (receptor, whole, on cells; also called LSECtin; CLEC4G) MDTTRYSKWGGSSEEVPGGPWGRWVHWSRRPLFLALAVLVTTVLWAVILSILLSKASTERAALLDGHDLLRTNASKQTAALGALKEEVGDCHSCCSGTQAQLQTTRAELGEAQAKLMEQESALRELRERVTQGLAEAGRGREDVRTELFRALEAVRLQNNSCEPCPTSWLSFEGSCYFFSVPKTTWAAAQDHCADASAHLVIVGGLDEQGFLTRNTRGRGYWLGLRAVRHLGKVQGYQWVDGVSLSFSHWNQGEPNDAWGRENCVMMLHTGLWNDAPCDSEKDGWICEKRHNC | binds |
| C-type lectin domain family 10 member A expressed on cells (receptor, whole, on cells; also called CLEC10A) MTRTYENFQYLENKVKVQGFKNGPLPLQSLLQRLCSGPCHLLLSLGLGLLLLVIICVVGFQNSKFQRDLVTLRTDFSNFTSNTVAEIQALTSQGSSLEETIASLKAEVEGFKQERQAGVSELQEHTTQKAHLGHCPHCPSVCVPVHSEMLLRVQQLVQDLKKLTCQVATLNNNASTEGTCCPVNWVEHQDSCYWFSHSGMSWAEAEKYCQLKNAHLVVINSREEQNFVQKYLGSAYTWMGLSDPEGAWKWVDGTDYATGFQNWKPGQPDDWQGHGLGGGEDCAHFHPDGRWNDDVCQRPYHWVCEAGLGQTSQESH | binds |
